For assay [1], the target named is T1, His-tagged human GTP cyclohydrolase 1 (human, UniProt P30793 1-250).
T1 sequence (looked up): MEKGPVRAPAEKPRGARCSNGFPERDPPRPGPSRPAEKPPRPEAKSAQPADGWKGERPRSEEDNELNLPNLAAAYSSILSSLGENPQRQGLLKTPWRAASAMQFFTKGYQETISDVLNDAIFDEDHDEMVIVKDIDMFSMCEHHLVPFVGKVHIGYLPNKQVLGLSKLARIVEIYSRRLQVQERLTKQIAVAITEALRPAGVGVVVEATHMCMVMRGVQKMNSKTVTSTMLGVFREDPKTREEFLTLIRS
Put plainly: FRET or BRET.

In assay [2] the target is T1, His-tagged human GTP cyclohydrolase 1. Put plainly: FRET or BRET. This is another data set of the same source. For orientation: BRET reads energy transfer from a luciferase to a nearby fluorophore.

Read-outs that look alike come from different tables or passages of the source.

B1: glutathione S-transferase (GST)-tagged human GTP cyclohydrolase feedback regulatory protein (natural protein)
chain: not shown
By Kd is commonly meant the concentration at which binding is half-saturated. A low value points to a tighter complex. Regarding B1, the dissociation constant Kd was 15.9 nM in assay [1] and 52.1 nM in assay [2].

Values taken from article PMC4677475 (Journal of biomolecular screening, 2011).
